According to US20190382503A1 (published 2019):

How the values were obtained:
human CD137 on cells [1] = biological target: T1, human CD137 on cells (human, UniProt Q07011 24-255); assay: flow cytometry, MFI of the CD137 positive CD8 T cells
T1 construct: Human CD137 on CHO-K1 transfectants, Jurkat/CD137 reporter cells or CD3-stimulated primary human CD8 T cells; cells named under assay; also called 4-1BB; TNFRSF9
Experimental: (§1) FACS staining and analysis of CD8 T cells: Following 48 h of incubation with or without CD3, human and cynomolgus PBMC were harvested, pooled, recounted and diluted in FACS buffer (PBS+0.5% BSA, 0.05% NaN₃) to a concentration of 5×10⁶ cells/mL. 50 μL (0.25×10⁶ cells) of cell solution was added to a 96-well FACS staining plate (Falcon #351190). Following 10 min of Fc-blocking in RT using Beriglobin (hIgG, 200 μg/mL), cells were washed in FACS buffer and then incubated for 1 h in 4° C. with 100 μL of the biotinylated ALG.APV-210 or negative control. […] Cells were analysed for ALG.APV-210 binding using flow cytometry by gating on viable, single cells expressing CD3 and CD8. MFI values (FMO subtracted) from 2 independent experiments as well as normalized pooled data from 2 experiments and EC₅₀-values were determined and plotted using GraphPad Prism 7, non-linear regression log (agonist) vs. normalized response-variable slope, n=6 donors/group.
(§2) ALG.APV-210 binding was also assessed by looking at the percentage of CD8 T cells bound by ALG.APV-210. […] The binding EC₅₀ values were also calculated on the MFI of the CD137 positive cells, and the results was an EC₅₀ of 0.17 nM for binding to human CD137 and 0.20 nM for cynomolgus monkey CD137.

[2] = biological target: T2, cynomolgus CD137 on cells (cynomolgus macaque, UniProt A9YYE7 24-254); assay: as above
T2 construct: whole, on cells; also called CHO-K1/cynomolgus CD137; cynomolgus monkey CD137
T2 sequence (A9YYE7 entry or part of it): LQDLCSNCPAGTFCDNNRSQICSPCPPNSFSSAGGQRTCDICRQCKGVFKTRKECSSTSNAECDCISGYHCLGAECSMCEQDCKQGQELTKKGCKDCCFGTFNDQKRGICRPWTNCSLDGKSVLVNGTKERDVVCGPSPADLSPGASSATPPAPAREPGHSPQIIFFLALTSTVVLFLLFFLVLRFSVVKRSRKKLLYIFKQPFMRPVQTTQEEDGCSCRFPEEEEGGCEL
Experimental: as §1, §2

human 5T4 on cells [3] = biological target: T3, human 5T4 on cells (human, UniProt Q13641 32-420); assay: flow cytometry, SKOV-3 cells, streptavidin-PE, normalized MFI of 2 pooled experiments
T3 construct: Human 5T4 on transfected cells (CHO-K1, CT26, B16) or endogenous on human tumour lines; the cell line is named under assay; also called trophoblast glycoprotein; TPBG
T3 sequence: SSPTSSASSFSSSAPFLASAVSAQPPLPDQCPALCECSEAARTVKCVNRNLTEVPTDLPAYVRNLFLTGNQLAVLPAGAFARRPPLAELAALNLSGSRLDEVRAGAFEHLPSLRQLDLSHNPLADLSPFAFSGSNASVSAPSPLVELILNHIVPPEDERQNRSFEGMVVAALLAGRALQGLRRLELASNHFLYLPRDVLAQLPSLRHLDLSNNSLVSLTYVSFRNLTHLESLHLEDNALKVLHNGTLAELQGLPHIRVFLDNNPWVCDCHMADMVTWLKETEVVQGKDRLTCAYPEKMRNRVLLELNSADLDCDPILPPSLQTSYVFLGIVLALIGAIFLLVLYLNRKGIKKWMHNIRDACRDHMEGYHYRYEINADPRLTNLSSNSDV
Experimental: (§3) Biotinylation: In order to detect ALG.APV-210 binding to 5T4-expressing cell lines, ALG.APV-210 was first biotinylated. The quality of the biotinylated protein and the impact on binding to its targets was assessed using ELISA.
(§4) FACS staining and analysis of 5T4-expressing cell lines: Prior to the FACS staining, all cell lines were characterized for their 5T4 expression levels using a receptor density kit (Quantum Simply Cellular, anti-human IgG, Bangs Laboratories, Inc). Adherent cell lines were cultured according to their supplier's instructions and were harvested from their cell culture flasks using Trypsin/EDTA, counted in R10 medium in a Burker chamber, and diluted in FACS buffer (PBS+0.5% BSA, 0.05% NaN₃) to a concentration of 4×10⁶ cells/mL. 50 μL (0.20×10⁶) of cell solution was added to a 96-well FACS staining plate (Falcon #351190). Cells were incubated for 20 min in 4° C. with 50 μL of the biotinylated ALG.APV-210 (2× final concentration). […] Cells were analysed for ALG.APV-210 binding using flow cytometry (FACSVerse) by gating on single cells. MFI values (secondary antibody only subtracted) from 1 out of 2 independent experiments, as well as normalized data and EC₅₀-values of pooled data from 2 experiments were determined and plotted using GraphPad Prism 7, non-linear regression log (agonist) vs. normalized response-variable slope.

human 5T4 on cells [4] = biological target: T3, human 5T4 on cells; assay: flow cytometry, HCT-116 cells, streptavidin-PE, normalized MFI of 2 pooled experiments
Experimental: as §4, with “concentration). The antibodies were added in a serial dilution starting at 20 μg/mL titrating down in a 12 step 1/2 dilution down to 0.010 μg/mL.” for “concentration).”

human 5T4 on cells [5] = biological target: T3, human 5T4 on cells; assay: flow cytometry, B16-hu5T4 cells, streptavidin-PE, normalized MFI of 2 pooled experiments
Experimental: as §4, with “concentration). The antibodies were added in a serial dilution starting at 20 μg/mL titrating down in a 12 step 1/2 dilution down to 0.010 μg/mL.” for “concentration).”

human 5T4 on cells [6] = biological target: T3, human 5T4 on cells; assay: flow cytometry, CHO-hu5T4 cells, streptavidin-PE, normalized MFI of 2 pooled experiments
Experimental: as §3, §4

human CD137 on cells [7] = biological target: T1, human CD137 on cells; assay: flow cytometry, human CD8 T cells gated from CD3-stimulated PBMC, normalized MFI, 2 pooled experiments
Experimental: as §1, with “control. The antibodies were added in a serial dilution starting either at 5 μg/mL titrating down in a 12 step 1/3 dilution down to 0.0003 μg/mL (exp 1) or 1 μg/mL titrating down in a 12 step 1/2 dilution down to 0.0005 μg/mL (exp 2).” for “control.”

T1 sequence (Q07011 24-255 limits assumed): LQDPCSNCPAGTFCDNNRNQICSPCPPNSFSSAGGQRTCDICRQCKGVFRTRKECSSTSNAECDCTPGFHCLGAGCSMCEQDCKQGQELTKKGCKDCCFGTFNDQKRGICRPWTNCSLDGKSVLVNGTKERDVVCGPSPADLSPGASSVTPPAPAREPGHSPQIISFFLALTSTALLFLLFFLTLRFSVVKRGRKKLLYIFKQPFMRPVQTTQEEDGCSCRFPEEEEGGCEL

B1: biotinylated ALG.APV-210 (bispecific antibody)
chain: EVQLLESGGGLVQPGGSLRLSCAASGFTFSHGSMYWVRQAPGKGLEWVSSISSGSGSTYYADSVKGRFTISHDNSKNTLYLQMNSLRAEDTAVYYCARSSYYGSYYSIDYWGQGTLVTVSSGGGGSGGGGSGGGGSGGGGSDIQMTQSPSSLSASVGDRVTITCRASQSISSYLNWYQQKPGKAPKLLIYAASSLQSGVPSRFSGSGSGTDFTLTISSLQPEDFATYYCQQYYDNLPTFGQGTKLEIKEPKSSDKTHTCPPCPAPEAAGAPSVFLFPPKPKDTLMISRTPEVTCVVVDVSHEDPEVKFNWYVDGVEVHNAKTKPREEQYNSTYRVVSVLTVLHQDWLNGKEYKCAVSNKALPAPIEKTISKAKGQPREPQVYTLPPSRDELTKNQVSLTCLVKGFYPSDIAVEWESNGQPENNYKTTPPVLDSDGSFFLYSKLTVDKSRWQQGNVFSCSVMHEALHNHYTQKSLSLSPGSGGGGSGGGGSGGGGSPSEVQLLESGGGLVQPGGSLRLSCAASGFTFSSYAMSWVRQAPGKCLEWVSAISGSGGSTYYADSVKGRFTISRDNSKNTLYLQMNSLRAEDTAVYYCARYYGGYYSAWMDYWGQGTLVTVSSGGGGSGGGGSGGGGSGGGGSDIQMTQSPSSLSASVGDRVTITCRASQSISSFLNWYQQKPGKAPKLLIYAASSLQSGVPSRFSGSGSGTDFTLTISSLQPEDSATYYCQQTYGYLHTFGCGTKLEIKR
modifications: biotinylated (sites not given)
Binder B1 has an EC50 (human CD137 on cells [1]) of 0.17 nM, an EC50 [2] of 0.2 nM and an EC50 (human 5T4 on cells [3]) of 15 nM. For the same binder, the EC50 (human 5T4 on cells [4]) was 16 nM, the EC50 (human 5T4 on cells [5]) was 14 nM and the EC50 (human 5T4 on cells [6]) was 23 nM. For the same binder, the EC50 (human CD137 on cells [7]) was 0.235 nM.
